# Source: patent US20020192785A1 (ONYX PHARMACEUTICALS, published 2002)
# B1: glu-glu tagged •N-p115 (amino acids 249-912 of human p115 Rho-GEF) (other, not shown: small tags and cut ends)
# chain: VMGNRRSDDPPKTKKGLSSILDAARWNRGEPQVPDFRHLKAEVDAEKPGATDRKGGVGMPSRDRNIGAPGQDTPGVSLHPLSLDSPDREPGADAPLELGDSSPQGPMSLESLAPPESTDEGAETESPEPGDEGEPGRSGLELEPEEPPGWRELVPPDTLHSLPKSQVKRQEVISELLVTEAAHVRMLRVLHDLFFQPMAECLFFPLEELQNIFPSLDELIEVHSLFLDRLMKRRQESGYLIEEIGDVLLARFDGAEGSWFQKISSRFCSRQSFALEQLKAKQRKDPRFCAFVQEAESRPRCRRLQLKDMIPTEMQRLTKYPLLLQSIGQNTEEPTEREKVELAAECCREILHHVNQAVRDMEDLLRLKDYQRRLDLSHLRQSSDPMLSEFKNLDITKKKLVHEGPLTWRVTKDKAVEVHVLLLDDLLLLLQRQDERLLLKSHSRTLTPTPDGKTMLRPVLRLTSAMTREVATDHKAFYVLFTWDQEAQIYELVAQTVSERKNWCALITETAGSLKVPAPASRPKPRPRPSSTREPLLSSSENGNGGRETSPADARTERILSDLLPFCRPGPEGQLAATALRKVLSLKQLLFPAEEDNGAGPPRDGDGVPGGGPLSPARTQEIQENLLSLEETMKQLEELEEEFCRLRPLLSQLGGNSVPQPGCT
# notes: Expressed in the baculovirus/Sf9 system and purified on anti-glu-glu Sepharose; also called N-terminal truncated version of p115
# What was measured:
# [1] = molecular target: RhoA with bound [3H]-GDP or GTPγ[35S] (UniProt P61586 1-193, limits assumed); assay: cell-based or functional assay
# Chain of RhoA with bound [3H]-GDP or GTPγ[35S] (P61586 whole entry): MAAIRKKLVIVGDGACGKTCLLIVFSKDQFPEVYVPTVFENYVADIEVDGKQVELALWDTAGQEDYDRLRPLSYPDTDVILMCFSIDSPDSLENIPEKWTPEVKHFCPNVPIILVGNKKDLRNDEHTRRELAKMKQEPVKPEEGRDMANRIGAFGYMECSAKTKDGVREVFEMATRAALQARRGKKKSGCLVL
# EE-K-Ras = molecular target: T1, EE-K-Ras (UniProt P01116-2 1-188); assay: complex formation assay; format for K-Ras not described
# T1 construct: Named EE-K-Ras only for the GDP dissociation assay; the result on physical association says 'K-Ras' and its format is not described; not shown: EE (glu-glu) tag
# GST-Rac1 = GST-Rac1 (UniProt P63000 1-192); assay: pull-down on GSH agarose (nucleotide depleted or GDP state), anti glu-glu immunoblot
# Experimental: (§1) Comparison of p115 stimulated GDP and GTPγ`S dissociation from RhoA. Increasing amounts of glu-glu tagged •N-p115 (0, 0.02, 0.075, 0.02, 0.4, 1.0 μM) were incubated with 0.3 μM RhoA with bound [³H]-GDP or GTP`[³⁵S] for 10 minutes, and the amount of nucleotide remaining bound to RhoA was determined as described in Hart et al. (39). Specificity of •N-p115 stimulated GDP dissociation. Increasing amounts of •N-p115 (0, 0.25, 0.5, 1.0, 2.0 μM) were incubated for 5 minutes with 2.0 μM GST-RhoA, GST-Rac1, GST-Cdc42Hs or EE-K-Ras prebound with [³H]-GDP and analysed as described in A. Western analysis of complex formation. One μg of glu-glu tagged •N-p115 was incubated with 4 μg of the nucleotide depleted or GDP states of baculovirus expressed GST-Rho, GST-Rac or GST-Cdc42Hs coupled to GSH agarose as described in Hart et al. (18). Proteins, which were recovered on the washed GSH beads, were analsed by SDS-PAGE and immunoblotting. The blot was probed with an affinity purified anti glu-glu monoclonal antibody. 100 ngs of glu-glu tagged •N-p115 was used as a positive control. Kinetic analysis of p115-catalyzed GEF activity on RhoA. […] The level of GTP incorporated onto Rho/min/pmol of •N-p115 was measured as GST-RhoA[`³²P]GTP bound to nitrocellulose filters.
# GST-Cdc42Hs = molecular target: T2, GST-Cdc42Hs (UniProt P60953 1-191); assay: as above
# T2 construct: Baculovirus expressed; not shown: glutathione S-transferase (GST) fusion partner
# T2 sequence (P60953 whole entry, the tested form may be a part): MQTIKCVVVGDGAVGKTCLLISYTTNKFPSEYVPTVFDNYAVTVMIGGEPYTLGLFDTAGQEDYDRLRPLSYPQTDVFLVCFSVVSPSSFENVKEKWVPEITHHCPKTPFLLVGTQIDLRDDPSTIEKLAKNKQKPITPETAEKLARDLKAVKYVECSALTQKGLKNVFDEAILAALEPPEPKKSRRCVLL
# Experimental: as §1
binder,measurement,setting,value
B1,stimulation of the intrinsic dissociation of GDP from RhoA,[1],10 fold
same,binding result,EE-K-Ras,no binding
same,binding result,GST-Rac1,no binding
same,binding result,GST-Cdc42Hs,no binding
